B1: AS170036 VL1VH1-56N98F (scFv)
scFv: QSALTQPRSVSGSPGQSVTISCAGTSSDVGSENYVSWYQQHPGKAPKLMIYQVNKRASGVPDRFSGSKSGNTASLTISGLQAEDEADYYCASYRSSDFNIVFGGGTKLTVLGGGGSGGGGSGGGGSEVQLVESGGGLVQPGGSLRLSCAASGFTFSSYAMSWVRQAPGKGLEWVSTINSGTNSPYYADSVKGRFTISRDNSKNTLYLQMNSLRAEDTAVYYCAKNFFDGSWFLGPPAMDYWGQGTLVTVSSHHHHHH
notes: also called 04-AS170036 VL1VH1-56N98F
B2: AS170036 VL1VH1-57H98Q (scFv)
scFv: B1 scFv with F98Q, N182G, S183H
notes: also called 09-AS170036 VL1VH1-57H98Q
B3: AS170036 VL1VH1-56Y108S (scFv)
scFv: B1 scFv with F98H, N182Y, G234S
notes: also called 18-AS170036 VL1VH1-56Y108S
B4: AS170036 VL1VH1-57H98F (scFv)
scFv: B1 scFv with N182G, S183H
notes: also called 07-AS170036 VL1VH1-57H98F
B5: AS170036 VL1VH1-56N98I (scFv)
scFv: B1 scFv with F98I
notes: also called 05-AS170036 VL1VH1-56N98I
B6: AS170036 VL1VH1-57K98F (scFv)
scFv: B1 scFv with N182G, S183K
notes: also called 10-AS170036 VL1VH1-57K98F
B7: AS170036 VL1VH1-56Y98F (scFv)
scFv: B1 scFv with N182Y
notes: also called 01-AS170036 VL1VH1-56Y98F
B8: AS170036 VL1VH1-56Y108D (scFv)
scFv: B1 scFv with F98H, N182Y, G234D
notes: also called 17-AS170036 VL1VH1-56Y108D
B9: AS170036 VL1VH1-56Y98Q (scFv)
scFv: B1 scFv with F98Q, N182Y
notes: also called 03-AS170036 VL1VH1-56Y98Q
B10: AS170036 VL1VH1-56N108A (scFv)
scFv: B1 scFv with F98H, G234A
notes: also called 19-AS170036 VL1VH1-56N108A
B11: AS170036 VL1VH1-57K108D (scFv)
scFv: B1 scFv with F98H, N182G, S183K, G234D
notes: also called 26-AS170036 VL1VH1-57K108D
B12: AS170036 VL1VH1-57H108D (scFv)
scFv: B1 scFv with F98H, N182G, S183H, G234D
notes: also called 23-AS170036 VL1VH1-57H108D
B13: AS170036 VL1VH1-57M98Q (scFv)
scFv: B1 scFv with F98Q, N182G, S183M
notes: also called 15-AS170036 VL1VH1-57M98Q
B14: AS170036 VL1VH1-57K98Q (scFv)
scFv: B1 scFv with F98Q, N182G, S183K
notes: also called 12-AS170036 VL1VH1-57K98Q
B15: AS170036 VL1VH1-57M98F (scFv)
scFv: B1 scFv with N182G, S183M
notes: also called 13-AS170036 VL1VH1-57M98F
B16: AS170036 VL1VH1-57H108S (scFv)
scFv: B1 scFv with F98H, N182G, S183H, G234S
notes: also called 24-AS170036 VL1VH1-57H108S
B17: AS170036 VL1VH1-57K108A (scFv)
scFv: B1 scFv with F98H, N182G, S183K, G234A
notes: also called 25-AS170036 VL1VH1-57K108A
B18: AS170036 VL1VH1-57K98I (scFv)
scFv: B1 scFv with F98I, N182G, S183K
notes: also called 11-AS170036 VL1VH1-57K98I
B19: AS170036 VL1VH1-56Y108A (scFv)
scFv: B1 scFv with F98H, N182Y, G234A
notes: also called 16-AS170036 VL1VH1-56Y108A
B20: AS170036 VL1VH1-56N108S (scFv)
scFv: B1 scFv with F98H, G234S
notes: also called 21-AS170036 VL1VH1-56N108S
B21: AS170036 VL1VH1-57H98I (scFv)
scFv: B1 scFv with F98I, N182G, S183H
notes: also called 08-AS170036 VL1VH1-57H98I
B22: AS170036 VL1VH1-57M98I (scFv)
scFv: B1 scFv with F98I, N182G, S183M
notes: also called 14-AS170036 VL1VH1-57M98I
B23: AS170036 VL1VH1-57K108S (scFv)
scFv: B1 scFv with F98H, N182G, S183K, G234S
notes: also called 27-AS170036 VL1VH1-57K108S
B24: AS170036 VL1VH1-56Y98I (scFv)
scFv: B1 scFv with F98I, N182Y
notes: also called 02-AS170036 VL1VH1-56Y98I
B25: AS170036 VL1VH1-57H108A (scFv)
scFv: B1 scFv with F98H, N182G, S183H, G234A
notes: also called 22-AS170036 VL1VH1-57H108A
B26: AS170036 VL1VH1-56N98Q (scFv)
scFv: B1 scFv with F98Q
notes: also called 06-AS170036 VL1VH1-56N98Q
B27: AS170036 VL1VH1-56N108D (scFv)
scFv: B1 scFv with F98H, G234D
notes: also called 20-AS170036 VL1VH1-56N108D
B28: AS170036 VL1VH1-57M98Q108S (scFv)
scFv: B1 scFv with F98Q, N182G, S183M, G234S
notes: also called 84-AS170036 VL1VH1-57M98Q108S
B29: AS170036 VL1VH1-57M98I108A (scFv)
scFv: B1 scFv with F98I, N182G, S183M, G234A
notes: also called 79-AS170036 VL1VH1-57M98I108A
B30: AS170036 VL1VH1-57M98Q108D (scFv)
scFv: B1 scFv with F98Q, N182G, S183M, G234D
notes: also called 83-AS170036 VL1VH1-57M98Q108D
B31: AS170036 VL1VH1-57M98I108D (scFv)
scFv: B1 scFv with F98I, N182G, S183M, G234D
notes: also called 80-AS170036 VL1VH1-57M98I108D
B32: AS170036 VL1VH1-57M98Q108A (scFv)
scFv: B1 scFv with F98Q, N182G, S183M, G234A
notes: also called 82-AS170036 VL1VH1-57M98Q108A
B33: AS170036 VL1VH1-57M98F108S (scFv)
scFv: B1 scFv with N182G, S183M, G234S
notes: also called 78-AS170036 VL1VH1-57M98F108S

Residue numbers refer to the chain shown, from its start.

One assay has as its target T1, AFP158/HLA-A*02:01 complex (human).
T1 construct: flowed as analyte in SPR
Description: SPR, fold vs AS170036 VL1VH1. (In general: SPR reads the build-up and loss of mass on a sensor chip optically.)
Description: (§1) The experiment was carried out as follows. The crude scFv protein were captured onto the sensorchip. Different concentrations (320, 160, 40 nM) of AFP158/HLA-A*02:01 complex flowed over the sensorchip surface, and were allowed to bind the antibody fragment for 100 s followed by injection of the running buffer to allow dissociation of the complex. On-rate (kd) and off-rate (kd) were calculated based on association and dissociation curve, and were used to estimate the equilibrium dissociation constant (KD).
(§2) The crude scFv muteins were then subjected to SPR affinity measurement by the method mentioned above.
B1 showed an Affinity increase of 8.2 fold.

B2 registered an Affinity increase of 24.8 fold.

With B3, the Affinity increase amounted to 19.2 fold.

With B4, the Affinity increase came out at 30.2 fold.

Consider B5, for which the Affinity increase stood at 10.7 fold.

B6 had an Affinity increase of 11.8 fold.

B7 returned an Affinity increase of 21 fold.

B8 yielded an Affinity increase of 37.3 fold.

B9: the Affinity increase was found to be 25.8 fold.

B10 showed an Affinity increase of 14.9 fold.

B11 had an Affinity increase of 18.9 fold.

Molecule B12 registered an Affinity increase of 23.5 fold.

B13: the Affinity increase was 8 fold.

Molecule B14 yielded an Affinity increase of 13.9 fold.

Molecule B15 had an Affinity increase of 9.3 fold.

In the case of B16, the Affinity increase came to 14.2 fold.

Regarding B17, the Affinity increase was 22.5 fold.

Molecule B18 returned an Affinity increase of 9.1 fold.

B19 came in with an Affinity increase of 48.1 fold.

Turning to B20, the Affinity increase worked out at 7 fold.

B21 came in with an Affinity increase of 12.6 fold.

In turn, B22 gave an Affinity increase of 5.6 fold.

Turning to B23, the Affinity increase came to 10.1 fold.

For the molecule B24, the Affinity increase was found to be 33.5 fold.

In turn, B25 gave an Affinity increase of 32.5 fold.

Molecule B26 registered an Affinity increase of 9.7 fold.

Turning to B27, the Affinity increase is 13.2 fold.

In the next assay the target is T1, AFP158/HLA-A*02:01 complex. Kind of assay: SPR, fold vs AS170036 VL1VH1.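 Further: crude scFv muteins immobilised on a sensor chip, peptide–MHC complex passed over at several concentrations, binding then buffer-driven dissociation, KD estimated from on- and off-rates.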 The source holds these as a separate data set.
Description: as §1, §2
The molecule B28 gave an Affinity increase of 16.7 fold.

In turn, B29 gave an Affinity increase of 28 fold.

Turning to B30, the Affinity increase was 29.6 fold.

Take B31: the Affinity increase worked out at 20.5 fold.

B32 displayed an Affinity increase of 43 fold.

With B33, the Affinity increase was 18 fold.

The target of a further assay is T1, AFP158/HLA-A*02:01 complex. Kind of assay: SPR, crude scFv captured, pMHC analyte.
Description: as §1, §2
For B1, the dissociation constant (Kd) (usually the constant that tells how readily two partners part at equilibrium) is 27 nM; the koff – broadly, a measure of how fast the partners let go of each other – is 0.0097 s⁻¹; the kon (commonly a measure of how fast the partners come together) worked out at 360000 M⁻¹ s⁻¹.

Molecule B2 gave a Kd of 9.1 nM, a koff of 0.0017 s⁻¹ and a kon of 190000 M⁻¹ s⁻¹.

In turn, B3 gave a Kd of 12 nM, a koff of 0.0017 s⁻¹ and a kon of 140000 M⁻¹ s⁻¹.

The molecule B4 had a Kd of 7.4 nM, a koff of 0.0018 s⁻¹ and a kon of 240000 M⁻¹ s⁻¹.

In the case of B5, the affinity, expressed as Kd, was 21 nM; the koff worked out at 0.0056 s⁻¹; the kon is 270000 M⁻¹ s⁻¹.

B6: the Kd was 19 nM, the koff came to 0.004 s⁻¹ and the kon worked out at 210000 M⁻¹ s⁻¹.

B7: the Kd worked out at 11 nM, the koff came out at 0.0023 s⁻¹ and the kon amounted to 220000 M⁻¹ s⁻¹.

Molecule B8 came in with a Kd of 6 nM, a koff of 0.0012 s⁻¹ and a kon of 200000 M⁻¹ s⁻¹.

Turning to B9, the Kd stood at 8.7 nM, the koff was found to be 0.0016 s⁻¹ and the kon came out at 190000 M⁻¹ s⁻¹.

Take B10: the Kd is 15 nM, the koff came to 0.0036 s⁻¹ and the kon worked out at 240000 M⁻¹ s⁻¹.

Take B11: the Kd was 12 nM, the koff came to 0.0022 s⁻¹ and the kon stood at 190000 M⁻¹ s⁻¹.

In turn, B12 displayed a Kd of 9.6 nM, a koff of 0.002 s⁻¹ and a kon of 210000 M⁻¹ s⁻¹.

Turning to B13, the Kd came to 28 nM, the koff worked out at 0.0067 s⁻¹ and the kon turned out to be 240000 M⁻¹ s⁻¹.

Molecule B14 gave a dissociation constant (Kd) of 16 nM, a koff of 0.0025 s⁻¹ and an on-rate (kon) of 160000 M⁻¹ s⁻¹.

On to B15, for which the Kd is 24 nM, the koff amounted to 0.0087 s⁻¹ and the kon was 360000 M⁻¹ s⁻¹.

In turn, B16 registered a Kd of 16 nM, a koff of 0.0022 s⁻¹ and a kon of 140000 M⁻¹ s⁻¹.

B17 yielded a Kd of 10 nM, a koff of 0.0018 s⁻¹ and a kon of 180000 M⁻¹ s⁻¹.

For the molecule B18, binding was put at a Kd of 25 nM, the koff came to 0.004 s⁻¹ and the on-rate constant (kon) stood at 160000 M⁻¹ s⁻¹.

Turning to B19, the Kd turned out to be 4.7 nM, the koff was 0.00093 s⁻¹ and the association rate constant (kon) stood at 200000 M⁻¹ s⁻¹.

In turn, B20 showed a Kd of 32 nM, a koff of 0.0067 s⁻¹ and a kon of 210000 M⁻¹ s⁻¹.

In turn, B21 showed a Kd of 18 nM, a dissociation rate constant (koff) of 0.0036 s⁻¹ and a kon of 200000 M⁻¹ s⁻¹.

Consider B22, for which binding was characterised by a dissociation constant (Kd) of 40 nM, the koff was 0.013 s⁻¹ and the on-rate (kon) is 310000 M⁻¹ s⁻¹.

The molecule B23 yielded a dissociation constant (Kd) of 22 nM, a dissociation rate constant (koff) of 0.0026 s⁻¹ and a kon of 120000 M⁻¹ s⁻¹.

B24 showed a dissociation constant Kd of 6.7 nM, a koff of 0.0014 s⁻¹ and a kon of 210000 M⁻¹ s⁻¹.

B25: binding was characterised by a dissociation constant (Kd) of 6.9 nM, the off-rate (koff) worked out at 0.0014 s⁻¹ and the kon was 210000 M⁻¹ s⁻¹.

Consider B26, for which the affinity, expressed as Kd, was 23 nM; the koff came to 0.0058 s⁻¹; the kon came out at 250000 M⁻¹ s⁻¹.

The molecule B27 returned a dissociation constant (Kd) of 17 nM, a koff of 0.0046 s⁻¹ and an on-rate (kon) of 270000 M⁻¹ s⁻¹.

The next assay addresses T1, AFP158/HLA-A*02:01 complex. Kind of assay: SPR, crude scFv captured, pMHC analyte. The source holds these as a separate data set.
Description: as §1, §2
Molecule B28 registered a Kd of 14 nM, a koff of 0.0021 s⁻¹ and a kon of 160000 M⁻¹ s⁻¹.

For B29, binding was put at a Kd of 8.1 nM, the koff stood at 0.0018 s⁻¹ and the kon worked out at 220000 M⁻¹ s⁻¹.

The molecule B30 showed a Kd of 7.6 nM, a koff of 0.0018 s⁻¹ and a kon of 240000 M⁻¹ s⁻¹.

In the case of B31, the Kd is 11 nM, the koff was determined as 0.0029 s⁻¹ and the kon came out at 260000 M⁻¹ s⁻¹.

As to B32, the Kd was found to be 5.2 nM, the koff is 0.0012 s⁻¹ and the kon was determined as 220000 M⁻¹ s⁻¹.

Turning to B33, the Kd was found to be 13 nM, the koff was 0.0024 s⁻¹ and the kon amounted to 190000 M⁻¹ s⁻¹.

These data come from US20240279318A1 (NANJING LEGEND BIOTECH, published 2024).
